Source: PMC11341715
Values belong to the binder of their own block, whether it stands above or below them.

Assays:
[1] = target: biotinylated multidomain FZD3 (C-terminally truncated, in detergent) (human) (UniProt Q9NPG1); assay: BLI; Octet Red 96e; biotinylated multidomain FZD3 or FZD6 in detergent immobilised, nanobody or DEP in solution; 10 mM HEPES pH 7.5, 150 mM NaCl, 0.02% Tween 20, 0.005% GDN; 1:1 binding model
[2] = target: biotinylated FZD6 cysteine-rich domain (CRD) (human); assay: BLI; Octet Red 96e; biotinylated FZD3 or FZD6 CRD immobilised, Nb8 or Wnt5a in solution; 10 mM HEPES pH 7.5, 150 mM NaCl, 0.02% Tween 20, 0.005% GDN; 1:1 binding model
Chain of biotinylated FZD6 cysteine-rich domain (CRD) (human) (O60353 22-139): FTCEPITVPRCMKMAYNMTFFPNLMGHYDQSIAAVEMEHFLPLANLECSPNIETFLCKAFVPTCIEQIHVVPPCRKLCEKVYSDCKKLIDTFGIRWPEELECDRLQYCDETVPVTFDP

[3] = target: biotinylated FZD3 cysteine-rich domain (CRD) (human) (UniProt Q9NPG1); assay: as above

Kd [1]: 460 nM
B1: DVL2 DEP domain (domain or fragment)
chain: PESGLEVRDRMWLKITIPNAFLGSDVVDWLYHHVEGFPERREARKYASGLLKAGLIRHTVNKITFSEQCYYVFGD

Kd [2]: 1200 nM
B2: Nb8 (VHH)
VHH: QVQLVESGGGLVQAGGSLRLSCAASGSISSINAMGWYRQAPGKQRELVAAITSGGSTNYADSVKGRFTISRDNAKNTVYLQMNSLKPGDTAVYYCNLLYYIDYVEYDYWGQGTQVTVSS

Kd [3]: 83 nM
B3: human Wnt5a (ligand)
chain: IIGAQPLCSQLAGLSQGQKKLCHLYQDHMQYIGEGAKTGIKECQYQFRHRRWNCSTVDNTSVFGRVMQIGSRETAFTYAVSAAGVVNAMSRACREGELSTCGCSRAARPKDLPRDWLWGGCGDNIDYGYRFAKEFVDARERERIHAKGSYESARILMNLHNNEAGRRTVYNLADVACKCHGVSGSCSLKTCWLQLADFRKVGDALKEKYDSAAAMRLNSRGKLVQVNSRFNSPTTQDLVYIDPSPDYCVRNESTGSLGTQGRLCNKTSEGMDGCELMCCGRGYDQFKTVQTERCHCKFHWCCYVKCKKCTEIVDQFVCK
